Experimental data from patent US20250170227A1.
pIC50: −log10 of the molar value.

Legend:
C1s [1] = test: C1s activity inhibition; 10x periodate
C1s [2] = test: C1s activity inhibition; 20x periodate
C1s [3] = test: C1s activity inhibition; 40x periodate
C1s [4] = test: C1s activity inhibition

Substance Cinryze-5k-10x has a pIC50 (C1s [1]) of 8.84.
Work on Cinryze-5k-20x yielded a pIC50 (C1s [2]) of 8.65.
With Cinryze-PEG5k-40x the pIC50 (C1s [3]) was 8.57.
Cinryze was tested, and the pIC50 (C1s [4]) was 8.83.
